Source: patent US20020150993A1 (Genentech, published 2002)

T1: Apo-3 immunoadhesin (human, UniProt Q93038 25-199)
T1 construct: extracellular domain; also called Apo-3-IgG; DR3; not shown: hinge and Fc portion of human IgG, as described in Ashkenazi et al. 1991
T1 sequence (looked up): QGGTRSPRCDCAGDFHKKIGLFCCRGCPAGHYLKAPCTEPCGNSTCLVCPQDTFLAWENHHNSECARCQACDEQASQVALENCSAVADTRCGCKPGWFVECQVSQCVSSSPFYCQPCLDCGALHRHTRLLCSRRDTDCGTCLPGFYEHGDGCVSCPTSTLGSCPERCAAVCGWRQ

T2: TNFR1 immunoadhesin (human, UniProt P19438 30-211, limits assumed)
T2 construct: extracellular domain; also called TNFR1-IgG; not shown: hinge and Fc portion of human IgG, as described in Ashkenazi et al. 1991
T2 sequence (looked up): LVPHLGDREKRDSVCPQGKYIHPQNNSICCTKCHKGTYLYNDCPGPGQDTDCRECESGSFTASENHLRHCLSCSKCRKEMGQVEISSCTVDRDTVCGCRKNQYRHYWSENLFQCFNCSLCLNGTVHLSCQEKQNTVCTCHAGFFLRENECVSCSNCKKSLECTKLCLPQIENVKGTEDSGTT

T3: TNFR2 immunoadhesin (human, UniProt P20333 23-257, limits assumed)
T3 construct: extracellular domain; also called TNFR2-IgG; not shown: hinge and Fc portion of human IgG, as described in Ashkenazi et al. 1991
T3 sequence (looked up): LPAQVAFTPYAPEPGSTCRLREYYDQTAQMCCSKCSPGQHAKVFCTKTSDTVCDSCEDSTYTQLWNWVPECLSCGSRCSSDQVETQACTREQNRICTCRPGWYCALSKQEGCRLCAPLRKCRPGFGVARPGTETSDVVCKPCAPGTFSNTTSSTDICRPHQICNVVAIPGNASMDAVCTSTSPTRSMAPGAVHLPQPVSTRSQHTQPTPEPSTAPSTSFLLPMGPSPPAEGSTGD

T4: DR4 immunoadhesin (human, UniProt O00220 24-239, limits assumed)
T4 construct: extracellular domain; also called DR4-IgG; not shown: hinge and Fc portion of human IgG, as described in Ashkenazi et al. 1991
T4 sequence (looked up): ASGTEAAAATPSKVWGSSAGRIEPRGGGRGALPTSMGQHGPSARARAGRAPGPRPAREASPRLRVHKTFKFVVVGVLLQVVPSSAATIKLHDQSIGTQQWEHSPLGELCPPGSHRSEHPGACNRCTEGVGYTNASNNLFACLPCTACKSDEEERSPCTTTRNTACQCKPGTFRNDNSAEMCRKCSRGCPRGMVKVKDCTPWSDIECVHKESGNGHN

B1: soluble DNA19355 polypeptide (ECD, His10-tagged, 125I-labeled) (ligand)
chain: MGHHHHHHHHHHSSGHIDDDDKHMETAKEPCMAKFGPLPSKWQMASSEPPCVNKVSDWKLEILQNGLYLIYGQVAPNANYNDVAPFEVRLYKNKDMIQTLTNKSKIQNVGGTYELHVGDTIDLIFNSEHQVLKNNTYWGIILLANPQFIS
modifications: 125I-labeled (radioiodinated)
notes: Expressed in E. coli and purified on Nickel-sepharose; Removal of the tag is not reported; also called soluble DNA19355 ECD molecule; radioiodinated DNA19355 polypeptide
B2: CD95 immunoadhesin (Fc fusion, UniProt P25445 26-173, looked up)
chain: QVTDINSKGLELRKTVTTVETQNLEGLHHDGQFCHKPCPPGERKARDCTVNGDEPDCVPCQEGKEYTDKAHFSSKCRRCRLCDEGHGLEVEINCTRTQNTKCRCKPNFFCNSTVCEHCDPCTKCEHGIIKECTLTSNTKCKEEGSRSN
notes: extracellular domain; also called Fas-IgG; CD95-IgG; not shown: hinge and Fc portion of human IgG, as described in Ashkenazi et al. 1991
B3: PRO364-IgG (PRO364 extracellular domain immunoadhesin) (Fc fusion)
chain: QRPTGGPGCGPGRLLLGTGTDARCCRVHTTRCCRDYPGEECCSEWDCMCVQPEFHCGDPCCTTCRHHPCPPGQGVQSQGKFSFGFQCIDCASGTFSGGHEGHCKPWTDCTQFGFLTVFPGNKTHNAVCVPGSPPAE
notes: Expressed in insect cells with Baculovirus; also called PRO364 immunoadhesin; PRO364 ECD C-terminus IgG-Fc tagged form; not shown: IgG Fc fused at the C-terminus
B4: full-length DNA19355 polypeptide on cells (ligand)
chain: MCLSHLENMPLSHSRTQGAQRSSWKLWLFCSIVMLLFLCSFSWLIFIFLQLETAKEPCMAKFGPLPSKWQMASSEPPCVNKVSDWKLEILQNGLYLIYGQVAPNANYNDVAPFEVRLYKNKDMIQTLTNKSKIQNVGGTYELHVGDTIDLIFNSEHQVLKNNTYWGIILLANPQFIS
notes: also called DNA19355 ligand; polypeptide encoded by DNA19355-1150

Assays:
Apo-3 immunoadhesin = target: T1, Apo-3 immunoadhesin; assay: co-precipitation with protein A-sepharose, SDS-PAGE, autoradiography
Protocol: (§1) The soluble DNA19355 ECD molecule was then labeled with […], for testing its ability to interact with the PRO364 immunoadhesin. For comparison, immunoadhesin constructs were also made of the following TNF receptor family members: CD95, DR4, DR5, TNFR1, TNFR2, and Apo-3. CD95, DR4, DR5, TNFR1, TNFR2, and Apo-3 immunoadhesins were prepared by fusing each receptor's ECD to the hinge and Fc portion of human IgG, as described previously for TNFR1 [Ashkenazi et al., Proc. Natl. Acad. Sci., 88:10535-10539 (1991)]. The respective TNF receptor family members are described (and relevant references cited) in the Background of the Invention section.
(§2) For the co-precipitation assay, each immunoadhesin (5 microgram) was incubated with ¹²⁵I-labeled soluble DNA19355 polypeptide (1 microgram) for 1 hour at 24° C., followed by protein A-sepharose for 30 minutes on ice. The reaction mixtures were spun down and washed several times in PBS, boiled in SDS-PAGE buffer containing 20 mM dithiothreitol and then resolved by SDS-PAGE and autoradiography.

CD95 immunoadhesin = target: B2; assay: as above
Protocol: as §1, §2

TNFR1 immunoadhesin [1] = target: T2, TNFR1 immunoadhesin; assay: as above
Protocol: as §1, §2

TNFR2 immunoadhesin = target: T3, TNFR2 immunoadhesin; assay: as above
Protocol: as §1, §2

DR5 immunoadhesin = target: T5, DR5 immunoadhesin (human, UniProt O14763 56-210, limits assumed); assay: as above
T5 construct: extracellular domain; also called DR5-IgG; Apo-2; not shown: hinge and Fc portion of human IgG, as described in Ashkenazi et al. 1991
Protocol: as §1, §2

DR4 immunoadhesin = target: T4, DR4 immunoadhesin; assay: as above
Protocol: as §1, §2

[2] = target: B4; assay: FACS on HUVEC (endogenous DNA19355 transcripts)
Protocol: (§3) The DNA19355 polypeptide was identified in a human umbilical vein endothelial cell (HUVEC) library, and the DNA19355 polypeptide transcripts are readily detectable in HUVEC by RT-PCR (data not shown). […] HUVEC were purchased from Cell Systems (Kirkland, Wash.) and grown in a 50:50 mix of Ham's F12 and Low Glucose DMEM media containing […] fetal bovine serum, 2 mM L-glutamine, 10 mM Hepes, and 10 ng/ml basic FGF. Cells were FACS sorted with PBS, PRO364-IgG, TNFR1-IgG or Fas-IgG as a primary antibody and goat anti-human F(ab′)2 conjugated to phycoerythrin (CalTag, Burlingame, Calif.).

[3] = target: B4; assay: FACS on 293 cells transiently transfected with full-length DNA19355
Protocol: In another assay, human 293 cells were transiently transfected with full-length DNA19355 and the ability of receptor immunoadhesin constructs for PRO364, TNFR1, HVEM, and DcR1 to t bind to those transfected cells was determined by FACS analysis. The 293 cells were maintained in high glucose DMEM media supplemented with 10% fetal bovine serum (FBS), 2 mM glutamine, 100 microgram/ml penicillin, and 100 microgram/ml streptomycin. The transfected cells (1×10⁵) were incubated for 60 minutes at 4° C. in 200 microliters 2% FBS/PBS with 1 microgram of the respective receptor or ligand immunoadhesin. The cells were then washed with 2% FBS/PBS, stained with R-phycoerythrin-conjugated goat anti-human antibody (Jackson Immunoresearch, West Grove, Pa.). Next, the cells were analyzed by FACS. To test the binding of the respective immunoadhesins to the transiently transfected cells, an expression vector (pRK5-CD4; Smith et al., Science, 328:1704-1707 (1987)) for CD4 was co-transfected with DNA19355 expression vector (see above). FITC-conjugated anti-CD4 (Pharmingen, San Diego, Calif.) was then used to identify and gate the transfected cell population in the FACS analysis.

TNFR1 immunoadhesin [4] = target: T2, TNFR1 immunoadhesin; assay: FACS on HUVEC (endogenous DNA19355 transcripts)
Protocol: as §3

B1
binding result (Apo-3 immunoadhesin): no binding | binding result (CD95 immunoadhesin): no binding | binding result (TNFR1 immunoadhesin [1]): no binding | binding result (TNFR2 immunoadhesin): no binding | binding result (DR5 immunoadhesin): no binding | binding result (DR4 immunoadhesin): no binding

B2
binding result [2]: no binding

B3
binding result [3]: binds

B4
binding result (TNFR1 immunoadhesin [4]): no binding
